Measured values as given in patent publication US20260234592.
Numbering of substitutions follows the chain as printed. In names and notes the source's numbering stands. Entries after “also recorded” stand apart in the source; their conditions may differ.

Experiments:
[1] = target: CBD-TEVrs-bglA (N-terminal His-tagged chitin binding domain, TEVrs ENLYFQG, 6-phospho-β-glucosidase A)
[2] = target: MBP5-TEV-paramyosin ΔSal (maltose binding protein domain and a paramyosin fragment linked by a TEV protease recognition sequence)

B1: R49A_L76P variant TEV protease (triple variant further comprising R49A and L76P), expressed in vivo (protein)
chain: GESLFKGPRDYNPISSTICHLTNESDGHTTSLYGIGFGPFIITNKHLFARNNGTLVVQSLHGVFKVKNTTTLQQHPIDGRDMIIIRMPKDFPPFPQKLKFREPQREERICLVTTNFQTKSMSSMVSDTSCTFPSGDGIFWKHWIQTKDGQCGSPLVSTRDGFIVGIHSASNFTNTNNYFTSVPKNFMELLTNQEAQQWVSGWRLNADSVLWGGHKVFMVKPEEPFQPVKEATQLMNE
[1]
  CBD-TEVrs-bglA cleavage over time at 30° C.: all variants performed better that the control

B2: R49G_L76P variant TEV protease (triple variant further comprising R49G and L76P), expressed in vivo (protein)
chain: B1 chain with A49G
[1]
  CBD-TEVrs-bglA cleavage over time at 30° C.: all variants performed better that the control

B3: R49I_L76P variant TEV protease (triple variant further comprising R49I and L76P), expressed in vivo (protein)
chain: B1 chain with A49I
[1]
  CBD-TEVrs-bglA cleavage over time at 30° C.: all variants performed better that the control

B4: R49L_L76P variant TEV protease (triple variant further comprising R49L and L76P), expressed in vivo (protein)
chain: B1 chain with A49L
[1]
  CBD-TEVrs-bglA cleavage over time at 30° C.: all variants performed better that the control

B5: R49V variant TEV protease (N-terminal His tag; R49V, L56V, S135G, S219V) (protein)
chain: GHHHHHHHGESLFKGPRDYNPISSTICHLTNESDGHTTSLYGIGFGPFIITNKHLFVRNNGTLVVQSLHGVFKVKNTTTLQQHLIDGRDMIIIRMPKDFPPFPQKLKFREPQREERICLVTTNFQTKSMSSMVSDTSCTFPSGDGIFWKHWIQTKDGQCGSPLVSTRDGFIVGIHSASNFTNTNNYFTSVPKNFMELLTNQEAQQWVSGWRLNADSVLWGGHKVFMVKPEEPFQPVKEATQLMNE
[1]
  CBD-TEVrs-bglA cleavage over time at 30° C. and 20° C.: showed slightly weaker activity than control TEV protease
  Ratio kR49V/kcontrol = (kcat/KM)R49V/(kcat/KM)control: 2
  Slope of ln(1-(cleavage ratio)) against the concentration of TEV protease, 4° C., 18 hours: y = -11.281x - 0.2037

B6: control TEV protease (TEV protease triple variant L56V, S135G, S219V with N-terminal His tag) (protein)
chain: B5 chain with V57R
[1]
  protease concentration that reaches almost 100% cleavage, 4° C., 18 hours: 2 µM of the control TEV protease was needed to reach the same mark
  substrate cleaved, 0° C., 18 hours: the control TEV protease cleaved 64% of the substrate
  substrate cleaved, 4° C., 18 hours: Control TEV protease cleaved the substrate by 73%; also recorded: the control TEV protease cleaved 77% of the substrate

B7: R49F_L76P variant TEV protease (N-terminal His tag; R49F, L56V, L76P, S135G, S219V) (protein)
chain: B5 chain with V57F, L84P
[1]
  CBD-TEVrs-bglA cleavage over time at 30° C.: all variants performed better that the control with the R49F_L76P variant (SEQ ID NO: 11) displaying the highest activity
  Ratio kR49F-L76P/kcontrol = (kcat/KM)R49F-L76P/(kcat/KM)control: 2.6
  Slope of ln(1-(cleavage ratio)) against the concentration of TEV protease, 4° C., 18 hours: y = -13.518x - 0.0413
  protease concentration that reaches almost 100% cleavage, 4° C., 18 hours: the R49F_L76P variant reached almost 100% cleavage at 0.5 µM
  substrate cleaved, 0° C., 18 hours: the R49F_L76P variant cleaved 86% of the substrate
  substrate cleaved, 4° C., 18 hours: the R49F_L76P variant cleaved 97% of the substrate
[2]
  cleavage of the substrate, 4° C., 1 hour: The variant protease achieved 85% cleavage in just 1 hour at 4 °C
  cleavage of the substrate, 4° C., 3 hours: The variant TEV protease cleaved 98% of the substrate in 3 hours
  cleavage of the substrate, 4° C., 5 hours: 99% in 5 hours

B8: R49V_L76P variant TEV protease (N-terminal His tag; R49V, L56V, L76P, S135G, S219V) (protein)
chain: B5 chain with L84P
[1]
  CBD-TEVrs-bglA cleavage over time at 30° C.: all variants performed better that the control
  CBD-TEVrs-bglA cleavage over time at 30° C. and 20° C.: the R49V_L76P variant showed higher activity than L76P variant
  Ratio kR49V-L76P/kcontrol = (kcat/KM)R49V-L76P/(kcat/KM)control: 1.5
  Slope of ln(1-(cleavage ratio)) against the concentration of TEV protease, 4° C., 18 hours: y = -11.117x - 0.0916
  protease concentration that reaches almost 100% cleavage, 4° C., 18 hours: the R49V_L76P variant reached almost 100% cleavage at 0.5 µM
  substrate cleaved, 4° C., 18 hours: R49V_L76P variant cleaved the substrate by 94%

B9: L76P variant TEV protease (N-terminal His tag; L56V, L76P, S135G, S219V) (protein)
chain: B5 chain with V57R, L84P
[1]
  CBD-TEVrs-bglA cleavage over time at 30° C. and 20° C.: At both temperatures, the L76P variant showed higher activity than control TEV protease
  Ratio kL76P/kcontrol = (kcat/KM)L76P/(kcat/KM)control: 1.7
  Slope of ln(1-(cleavage ratio)) against the concentration of TEV protease, 4° C., 18 hours: y = -13.611x - 0.0596
  substrate cleaved, 0° C., 18 hours: the L76P variant cleaved 75% of the substrate
  substrate cleaved, 4° C., 18 hours: the L76P variant cleaved 87% of the substrate
